For data set [1], the target named is APOBEC3G full-length (E. coli) (Homo sapiens, UniProt Q9HC16 Q9HC16:1-384). Briefly: processive deamination with bias to the 5' CCC. The settings on record: tags: GST, pGEX-6P1, E. coli; label: internal fluorescein-dT. The source says:
(§1) FIG. 1B is Apo3G processivity and 3′_{—}5′ deamination bias was characterized on an 85-nt internally F-labeled ssDNA with two CCC motifs 30-nt apart. Single deaminations of the 5′C and 3′C that are spaced by 30-nt on the ssDNA substrate are detected as the appearance of labeled 67- and 48-nt fragments, respectively; double deamination of both Cs on the same molecule results in 30-nt labeled fragment (5′C and 3′C). Substrate usage (%) is less than 15% to maintain single-hit kinetics. The ‘Processivity factor’ is defined as the ratio of the observed fraction of double deaminations (occurring at both 5′C and 3′C on the same molecule) to the predicted fraction of independent double deaminations (Chelico et al., 2006). […] The deamination bias is measured by the ratio of 5′C/3′C deaminations. Deamination patterns are shown using full length Apo3G (lane 2) and Apo3G-CD2 (lanes 3, 4). As a control, no Apo3G or Apo3G-CD2 enzyme was added in lane 1.
(§2) Apo3G (0.024-μM) was allowed to react with 500 nM FdT incorporated ssDNA for […] and subsequently treated with UDG and resolved on 16% UREA PAGE for analysis as described previously¹⁰. Specific activity, measured as fmoles substrate deaminated per pg enzyme per minute, was calculated from the percent deamination of an ssDNA substrate over a range of enzyme concentrations. […]

Another data set deals with APOBEC3G-CD2 (Homo sapiens, UniProt Q9HC16 Q9HC16:197-380). Briefly: about 2-fold decrease in processivity and polarity. The note with it: tags: GST removed by PreScission protease; label: internal fluorescein-dT.
Sequence of APOBEC3G-CD2 (Q9HC16 197-380, one chain of several): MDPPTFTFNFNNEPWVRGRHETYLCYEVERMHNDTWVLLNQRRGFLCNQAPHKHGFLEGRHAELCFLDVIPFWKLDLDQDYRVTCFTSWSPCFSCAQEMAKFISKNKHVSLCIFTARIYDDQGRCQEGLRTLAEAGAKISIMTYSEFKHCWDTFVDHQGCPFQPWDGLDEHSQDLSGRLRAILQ
Source text: as §1, §2

The target in the next data set is APOBEC3G D316R/D317R (Homo sapiens, UniProt Q9HC16 Q9HC16:1-384, D316R,D317R). Briefly: FP; higher binding than wt; 5 mM MgCl2, 37 C. The note with it: tags: Sf9, pAcG2T; label: internal fluorescein-dT. The procedure: Apo3G-DNA binding were monitored by changes in steady state fluorescence depolarization (rotational anisotropy). Reaction mixtures (70 μl), containing an F-labeled DNA ([…]) in buffer (50 mM HEPES, pH 7.3, 1 mM DTT and 5 mM MgCl₂) and varying concentration of 0 to 500 nM Apo3G, were incubated at 37° C. The sequence of the ssDNA is: tta gat gag tgt aa(FdT) gtg ata tat gtg tat. Rotational anisotropy was measured as described previously (Chelico et al., 2006). The fraction of DNA bound to protein was determined as described previously (Bertram et al., 2004).
Sequence of APOBEC3G D316R/D317R (Q9HC16 whole entry D316R/D317R, one chain of several): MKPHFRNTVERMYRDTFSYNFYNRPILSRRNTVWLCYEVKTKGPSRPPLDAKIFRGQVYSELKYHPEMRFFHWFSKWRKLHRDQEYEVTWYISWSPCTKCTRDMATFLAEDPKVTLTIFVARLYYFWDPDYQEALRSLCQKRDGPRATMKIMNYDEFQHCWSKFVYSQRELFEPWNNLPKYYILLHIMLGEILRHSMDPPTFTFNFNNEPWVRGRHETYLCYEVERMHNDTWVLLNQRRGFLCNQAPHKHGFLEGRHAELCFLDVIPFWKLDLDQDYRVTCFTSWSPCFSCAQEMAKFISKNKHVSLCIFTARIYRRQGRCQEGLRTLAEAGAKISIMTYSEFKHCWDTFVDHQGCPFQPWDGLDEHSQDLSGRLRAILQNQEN

Sequence of APOBEC3G full-length (E. coli) (Q9HC16 whole entry, the tested form may be a part, one chain of several): as the sequence (Q9HC16 whole entry D316R/D317R, one chain of several) above, with R316D, R317D counted along it

B1: 85-nt processivity ssDNA (ssDNA)
DNA: AAAGAGAAAGTGATACCCAAAGAGTAAAGTTAGATAGAGAGTGATACCCAAAGAGTAAAGTTAGTAAGATGTGTAAGTATGTTAA
modifications: [31 (FdT = fluorescein-dT, written as T)]
Take B1: the binding result (in data set [1]; in the data set with APOBEC3G-CD2) was “binds” in each case.

For the molecule TTAGATGAGTGTAATGTGATATATGTGTAT (ssDNA, [15 (fluorescein-dT)]) [anisotropy ssDNA], in the data set with APOBEC3G D316R/D317R, the binding signal was 2 fold of wt.

Values taken from patent US20100081621, “Crystal structure of the catalytic domain of the viral restriction factor APOBEC3G” (published 2010).
